Laboratory results taken from patent publication US20090252729A1 (Biogen, published 2009).

T1: cynomolgus FcγR IIa (CD32a) (cynomolgus, UniProt A0A140HDN0 28-215)
T1 sequence: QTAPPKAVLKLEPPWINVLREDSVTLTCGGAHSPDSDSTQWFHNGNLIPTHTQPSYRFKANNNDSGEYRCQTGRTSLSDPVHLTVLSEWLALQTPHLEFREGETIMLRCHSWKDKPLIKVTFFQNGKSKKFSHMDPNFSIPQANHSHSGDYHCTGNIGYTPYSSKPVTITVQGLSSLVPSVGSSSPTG

T2: cynomolgus FcγR IIb (CD32b) (cynomolgus, UniProt A0A140HDP4 43-217)
T2 sequence: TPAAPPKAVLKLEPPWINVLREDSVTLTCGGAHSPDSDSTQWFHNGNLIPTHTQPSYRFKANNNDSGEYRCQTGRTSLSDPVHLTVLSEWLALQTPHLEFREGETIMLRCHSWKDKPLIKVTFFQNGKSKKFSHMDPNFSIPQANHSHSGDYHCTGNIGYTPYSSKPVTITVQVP

T3: human FcγR IIa (CD32a) (human, UniProt P12318 34-217, limits assumed)
T3 sequence (looked up): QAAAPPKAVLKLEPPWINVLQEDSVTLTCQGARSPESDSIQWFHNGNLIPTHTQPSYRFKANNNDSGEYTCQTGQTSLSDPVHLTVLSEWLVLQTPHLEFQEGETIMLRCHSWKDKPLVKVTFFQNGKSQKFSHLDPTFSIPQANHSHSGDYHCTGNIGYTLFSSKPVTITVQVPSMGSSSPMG

T4: human FcγR IIb (CD32b) (human, UniProt P31994 43-217, limits assumed)
T4 sequence (looked up): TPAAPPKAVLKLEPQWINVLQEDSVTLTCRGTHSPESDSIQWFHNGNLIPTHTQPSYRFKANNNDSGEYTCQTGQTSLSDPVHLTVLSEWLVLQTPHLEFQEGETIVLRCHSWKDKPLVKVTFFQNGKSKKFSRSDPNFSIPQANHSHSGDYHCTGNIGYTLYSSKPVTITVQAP

T5: human LTα1β2 on phorbol myristate acetate activated II-23 cells (human, UniProt P01374 35-205; Q06643 1-244)
T5 construct: whole, on cells
T5 sequence (looked up) 1: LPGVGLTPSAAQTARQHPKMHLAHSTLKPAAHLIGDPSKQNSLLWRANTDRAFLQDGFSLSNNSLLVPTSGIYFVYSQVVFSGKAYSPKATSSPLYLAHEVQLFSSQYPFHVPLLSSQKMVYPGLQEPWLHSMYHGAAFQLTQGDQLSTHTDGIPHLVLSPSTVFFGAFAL
T5 sequence (looked up) 2: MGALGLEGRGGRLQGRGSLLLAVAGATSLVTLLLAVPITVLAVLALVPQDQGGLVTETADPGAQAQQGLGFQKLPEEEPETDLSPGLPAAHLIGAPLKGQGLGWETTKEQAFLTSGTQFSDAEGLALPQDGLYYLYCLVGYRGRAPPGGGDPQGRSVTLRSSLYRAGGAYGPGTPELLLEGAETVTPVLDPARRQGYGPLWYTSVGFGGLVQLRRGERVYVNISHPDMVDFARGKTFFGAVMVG

T6: LTα1β2 (coated on ELISA plates) (Homo sapiens (Human), UniProt P01374 35-205; Q06643 49-244, Heterotrimer of one alpha and two beta chains, as the name says.)
T6 construct: Heterotrimer of one alpha and two beta chains by its name; also called LTa1β2; copies: 1 + 1
T6 sequence (alpha): T5 sequence (looked up) 1
T6 sequence (beta): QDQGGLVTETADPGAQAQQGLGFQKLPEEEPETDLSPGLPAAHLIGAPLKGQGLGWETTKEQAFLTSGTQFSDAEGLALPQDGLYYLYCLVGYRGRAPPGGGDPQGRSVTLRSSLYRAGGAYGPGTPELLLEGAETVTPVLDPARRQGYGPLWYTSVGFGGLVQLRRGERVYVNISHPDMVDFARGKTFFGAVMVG

B1: Hu5C8, conventional human IgG1 anti-CD40L antibody (antibody)
heavy: not shown
light: DIVLTQSPATLSVSPGERATISCRASQRVSSSTYSYMHWYQQKPGQPPKLLIKYASNLESGVPARFSGSGSGTDFTLTISSVEPEDFATYYCQHSWEIPPTFGGGTKLEIKRTVAAPSVFIFPPSDEQLKSGTASVVCLLNNFYPREAKVQWKVDNALQSGNSQESVTEQDSKDSTYSLSSTLTLSKADYEKHKVYACEVTHQGLSSPVTKSFNRGEC
modifications: N-glycan at EU N297; biotinylated (sites not given) in the CD40L ELISA
notes: Human IgG1, fully glycosylated, bivalent; Biotinylated in the CD40L ELISA; also called WT 5c8 hIgG1; WT 5C8 hIgG1
B2: 3×G4S-linked hemiglycosylated 5C8 scFc IgG1 antibody (pASK043) (antibody)
heavy: not shown
light: B1 light
notes: One heavy scFc chain and one light chain (monovalent); also called monovalent 3×G4S-linked hemiglycosylated scFc; hemi-glycosylated 3×-G4S linked scFc
B3: 1×G4S-linked hemiglycosylated 5C8 scFc IgG1 antibody (pEAG2066) (antibody)
heavy: not shown
light: B1 light
notes: plasmid not given; also called hemi-glycosylated 1×-G4S linked scFc; 1×G4S linked scFc
B4: 3×G4S-linked fully glycosylated 5C8 scFc IgG1 antibody (ASK048) (antibody)
heavy: not shown
light: B1 light
notes: also called fully glycosylated 3×G4S linked scFc
B5: LTβR:IgG, dimeric (Fc fusion, not shown: a dimerising Fc or GST; small tags and cut ends)
chain: QAVPPYASENQTCRDQEKEYYEPQHRICCSRCPPGTYVSAKCSRIRDTVCATCAENSYNEHWNYLTICQLCRPCDPVMGLEEIAPCTSKRKTQCRCQPGMFCAAWALECTHCELLSDCPPGTEAELKDEVGKGNNHCVPCKAGHFQNTSSPSARCQPHTRCENQGLVEAAPGTAQSDTTCKNPLEPLPPEMSGTMLM
modifications: Dimeric through its Fc, which is left out. A biotinylated form (bLTβRIgG) was also used in FACS.
notes: Conventional dimeric receptor-Fc fusion used as the comparator; also called bLTβRIgG (biotinylated)

Tests used:
[1] = target: cynomolgus FcγR III (CD16a) (cynomolgus, UniProt Q8SPW2 17-208, limits assumed); experiment: Alphascreen assay, cynomolgus FcγR CD16a
[2] = target: T1, cynomolgus FcγR IIa (CD32a); experiment: Alphascreen assay, cynomolgus FcγR CD32a (R)
[3] = target: T7, human FcRIII-GST (CD16a, V158) (human, UniProt P08637 17-208, limits assumed); experiment: Alphascreen competition assay, huCD16a V158-GST on anti-GST acceptor beads; competitor: biotinylated wild-type IgG1 on streptavidin donor beads; design: IC50 (read off the curve): unit not given here
T7 construct: also called human FcγRIII; FcγRIII (CD16a); not shown: GST tag
Description: (§1) The ability of scFc antibodies comprising GGGGS (“1×-G4S”) or (GGGS)3 (“3×-G4S”) linkers to engage Fcγ receptors was also evaluated in an Amplified Luminescent Proximity Homogeneous Assay (Alphascreen®; Perkin Elmer). Laser excitation (680 nm) of a donor bead generates singlet oxygen which, if in close proximity to an acceptor bead, initiates a cascase of events ultimately leading to fluorescence emission at 520-620 nm. Donor and acceptor beads decorated with ligand and receptor proteins, respectively, are brought into desired proximity only when the receptor and ligand become functionally engaged.
(§2) The Alphascreen® assay was performed in a competitive format in which serial dilutions of test antibodies (WT IgG1 or scFc) were incubated with human FcRIII-GST (CD16a, V158) and anti-GST acceptor beads overnight at 4° C. in a 96-well white plate. Streptavidin donor beads and biotinylated wild-type IgG1 were also incubated overnight at 4° C. in a separate tube and then added to the assay plate the next day. After a two-hour incubation at room temperature with gentle shaking the plates were read in an Envision® plate reader (Perkin Elmer).

[4] = target: T7, human FcRIII-GST (CD16a, V158); experiment: Alphascreen assay, human FcγR CD16a
Description: as §1, §2

[5] = target: T2, cynomolgus FcγR IIb (CD32b); experiment: Alphascreen assay, cynomolgus FcγR CD32b
human FcγR IIa (CD32a) = target: T3, human FcγR IIa (CD32a); experiment: Alphascreen assay, human FcγR CD32a (R)
human FcγR IIb (CD32b) = target: T4, human FcγR IIb (CD32b); experiment: Alphascreen assay, human FcγR CD32b
[6] = target: T7, human FcRIII-GST (CD16a, V158); experiment: Alphascreen, competitive format, competitor biotinylated wild-type IgG1
Description: as §1, §2

[7] = target: T7, human FcRIII-GST (CD16a, V158); experiment: Alphascreen
Description: as §1, §2

[8] = target: T5, human LTα1β2 on phorbol myristate …; experiment: FACS direct binding on PMA-activated II-23 cells, mean fluorescence (MFI)
Description: The binding affinity of the monomeric LTβR:scFc was also evaluated by FACS analysis (FIG. 59B). FACS was done on II-23 cells according to the methods of Eldredge et al. (Eldredge, Berkowitz et al. 2006). FACS binding assays using flow cytometry were done according to the method previously described (Force, Walter et al. 1995). Briefly, in direct binding assays human LTα1β2 was detected on phorbol myristate acetate activated II-23 cells (American Type Culture Collection (ATCC) Manassas, Va.) in FACS buffer with varied concentrations of either the LTβRIgG or biotinylated LTβRIgG (bLTβRIgG). Cells were incubated on ice for 1-2 h then washed with PBS and centrifuged. The appropriate steptavidin phycoerythrin or anti-hFc phycoerythrin labeled secondary (Molecular Probes, Eugene, Oreg.) in FACS buffer was added and incubated with the cells for an additional 1 h and washed again. The fluorescent staining of the cellular bound LTβRIgG on the II-23 cells was quantified by determining the mean channel fluorescence by FACS. Both the FACS and ELISA show the LTβRscFc has a reduced binding affinity compared with LTβRIgG.

[9] = target: T6, LTα1β2 (coated on ELISA plates); experiment: ELISA on plates coated with 5 ug/ml LTα1β2, detected with anti-human HRP secondary antibody. The value is parameter C (midpoint) of the four-parameter fit y = ((A-D)/(1+(x/C)^B))+D printed under the plot. The unit is taken from the x axis.
Description: FIG. 59A depicts the results of an ELISA evaluating the binding affinity of the monomeric LTβR:scFc to LTα1β2. ELISA plates were coated overnight at 4° C. with 5 ug/ml LTα1β2 in PBS. Plates were then blocked with 1% Casein in 10 mM PBS, pH 7.0, then washed with 10 mM PBS, pH 7.0, 0.1% Tween 20 (wash buffer) three times. LTβR:IgG or LTBβ:scFc serially diluted into 10 mM PBS, 362 mM NaCl, 0.055 Tween-20, 0.1% Casein, 5% FBS pH 7.0 (assay diluent) and incubated for 1 h, then washed with wash buffer. To each well was added Donkey anti-human heavy and light specific HRP (Jackson Labs) conjugated secondary antibody diluted 1:5000 in assay diluents for 60 min then washed with PBS. The HRP was developed using tetramethybenzidine and hydrogen peroxide in 100 mM NaAcetate pH 4.0 after several minutes, the assay was stopped by the addition of 100 uL of 1N sulfuric acid and sample absorbance read at 450 nm.

Row | Binder | EC50 [1] [nM] | EC50 [2] [nM] | EC50 [3] [nM] | EC50 [4] [nM] | EC50 [5] [nM] | EC50 (human FcγR IIa (CD32a)) [nM] | EC50 (human FcγR IIb (CD32b)) [nM] | fold lower affinity against fully glycosylated WT human IgG1 [6] [fold] | fold weaker binding against WT IgG1 [7] [fold] | IC50 (read off the curve) [3] | EC50 (read off the curve) [8] [µg/mL] | EC50 [9] [µg/mL]
1 | B1 | 37 | 359 | 12 | 22 | 52 | 511 | 292 |  |  |  |  | 
2 | B2 | 89 | 221 | 77 | 59 | 72 | 949 | 552 | ~4 |  |  |  | 
3 | B3 |  |  | 689 |  |  |  |  | ~57 | ~60 | ~70 |  | 
4 | B4 | 32 | 206 |  | 18 | 17 | 304 | 183 |  |  |  |  | 
5 | B5 |  |  |  |  |  |  |  |  |  |  | ~0.1 | 0.028
